Molecular target: BSA (UniProt P02769 25-607)
Test: indirect ELISA, protein coated, anti-6xHis detection, OD450

BSA, sequence (P02769 25-607 limits assumed): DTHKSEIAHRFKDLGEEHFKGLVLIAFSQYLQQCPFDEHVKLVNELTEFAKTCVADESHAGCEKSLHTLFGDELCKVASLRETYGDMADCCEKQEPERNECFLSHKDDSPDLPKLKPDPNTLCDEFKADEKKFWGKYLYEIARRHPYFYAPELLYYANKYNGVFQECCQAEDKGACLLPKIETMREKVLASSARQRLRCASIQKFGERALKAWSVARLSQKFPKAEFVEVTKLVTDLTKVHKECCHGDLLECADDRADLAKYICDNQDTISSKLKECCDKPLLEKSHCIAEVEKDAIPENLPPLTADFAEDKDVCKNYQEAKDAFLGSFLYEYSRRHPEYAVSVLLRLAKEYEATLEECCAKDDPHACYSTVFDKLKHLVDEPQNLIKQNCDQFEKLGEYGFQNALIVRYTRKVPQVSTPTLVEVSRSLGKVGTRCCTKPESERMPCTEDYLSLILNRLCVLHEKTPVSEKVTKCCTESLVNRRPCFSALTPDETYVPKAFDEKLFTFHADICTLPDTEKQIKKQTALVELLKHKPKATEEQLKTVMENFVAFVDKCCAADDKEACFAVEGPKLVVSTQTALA

B1: VHH-A35R纳米抗体 (VHH)
VHH: AVQLVESGGGLAQTGGSLRLSCAASGRAFRDYAMAWFRQAPGKEREFVAAVSKTGYAIRYEDSVKGRFTISRDNAKNTVSLQMASLKVEDTAVYYCAADRTHRLGYSLRVDPLGYDDWGQGTQVTVSS
binding result: no binding

Reference: patent CN116751285A (UNIV HEBEI NORMAL, dated 2023)
